Test results as given in paper PMC8017708.

How the values were obtained:
Details in all cases: remark: other sources report otherwise
[1] = biological target: T1, recombinant UVR8 (wild-type) purified from Sf9 insect cells (Arabidopsis thaliana), Q9FN03; assay: SEC
T1 chain: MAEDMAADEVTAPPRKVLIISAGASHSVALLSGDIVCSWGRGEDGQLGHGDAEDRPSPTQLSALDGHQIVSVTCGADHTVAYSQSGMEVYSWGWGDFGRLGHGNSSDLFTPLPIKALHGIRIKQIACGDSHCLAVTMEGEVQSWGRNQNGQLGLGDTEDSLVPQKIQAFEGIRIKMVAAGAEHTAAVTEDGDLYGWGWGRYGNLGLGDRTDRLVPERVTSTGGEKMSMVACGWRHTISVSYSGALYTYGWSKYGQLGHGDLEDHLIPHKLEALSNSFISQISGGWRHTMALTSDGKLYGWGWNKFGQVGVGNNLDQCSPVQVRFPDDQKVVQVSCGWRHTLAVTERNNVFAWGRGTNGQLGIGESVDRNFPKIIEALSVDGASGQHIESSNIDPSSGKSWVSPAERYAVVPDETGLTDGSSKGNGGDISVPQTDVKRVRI

[2] = biological target: T2, recombinant UVR8^W285A purified from Sf9 insect cells (Arabidopsis thaliana), Q9FN03; assay: SEC
T2 chain: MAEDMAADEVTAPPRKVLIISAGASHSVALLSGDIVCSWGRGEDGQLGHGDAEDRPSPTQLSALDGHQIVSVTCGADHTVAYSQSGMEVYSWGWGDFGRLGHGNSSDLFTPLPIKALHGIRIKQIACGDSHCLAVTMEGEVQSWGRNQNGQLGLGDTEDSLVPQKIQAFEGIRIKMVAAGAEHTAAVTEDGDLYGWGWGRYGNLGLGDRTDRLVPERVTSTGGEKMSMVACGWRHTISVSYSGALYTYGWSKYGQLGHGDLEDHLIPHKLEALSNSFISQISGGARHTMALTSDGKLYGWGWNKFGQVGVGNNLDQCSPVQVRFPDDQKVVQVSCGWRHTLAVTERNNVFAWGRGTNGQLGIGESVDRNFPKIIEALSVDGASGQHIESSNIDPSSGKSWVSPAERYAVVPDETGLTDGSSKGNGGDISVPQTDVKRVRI

[3] = biological target: T3, UVR8^W285A expressed in Arabidopsis (Arabidopsis thaliana), Q9FN03; assay: cross-linking
T3 chain: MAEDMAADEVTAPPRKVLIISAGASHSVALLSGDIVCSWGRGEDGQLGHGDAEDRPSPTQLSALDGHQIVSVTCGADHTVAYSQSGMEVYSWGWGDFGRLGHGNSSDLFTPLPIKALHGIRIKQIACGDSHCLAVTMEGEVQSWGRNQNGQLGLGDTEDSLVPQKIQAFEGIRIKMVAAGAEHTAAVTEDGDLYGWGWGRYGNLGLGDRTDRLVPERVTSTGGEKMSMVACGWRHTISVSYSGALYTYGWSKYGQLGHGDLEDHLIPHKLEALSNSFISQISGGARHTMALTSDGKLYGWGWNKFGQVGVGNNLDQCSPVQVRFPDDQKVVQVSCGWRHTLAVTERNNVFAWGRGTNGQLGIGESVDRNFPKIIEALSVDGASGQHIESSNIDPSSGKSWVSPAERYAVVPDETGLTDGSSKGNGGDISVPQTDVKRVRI

B1: recombinant UVR8 (wild-type) purified from Sf9 insect cells, Q9FN03 1-440 (natural protein)
chain: MAEDMAADEVTAPPRKVLIISAGASHSVALLSGDIVCSWGRGEDGQLGHGDAEDRPSPTQLSALDGHQIVSVTCGADHTVAYSQSGMEVYSWGWGDFGRLGHGNSSDLFTPLPIKALHGIRIKQIACGDSHCLAVTMEGEVQSWGRNQNGQLGLGDTEDSLVPQKIQAFEGIRIKMVAAGAEHTAAVTEDGDLYGWGWGRYGNLGLGDRTDRLVPERVTSTGGEKMSMVACGWRHTISVSYSGALYTYGWSKYGQLGHGDLEDHLIPHKLEALSNSFISQISGGWRHTMALTSDGKLYGWGWNKFGQVGVGNNLDQCSPVQVRFPDDQKVVQVSCGWRHTLAVTERNNVFAWGRGTNGQLGIGESVDRNFPKIIEALSVDGASGQHIESSNIDPSSGKSWVSPAERYAVVPDETGLTDGSSKGNGGDISVPQTDVKRVRI
Work on B1 yielded a stoichiometry N [1] of 2.

B2: recombinant UVR8^W285A purified from Sf9 insect cells, Q9FN03 1-440 (natural protein)
chain: MAEDMAADEVTAPPRKVLIISAGASHSVALLSGDIVCSWGRGEDGQLGHGDAEDRPSPTQLSALDGHQIVSVTCGADHTVAYSQSGMEVYSWGWGDFGRLGHGNSSDLFTPLPIKALHGIRIKQIACGDSHCLAVTMEGEVQSWGRNQNGQLGLGDTEDSLVPQKIQAFEGIRIKMVAAGAEHTAAVTEDGDLYGWGWGRYGNLGLGDRTDRLVPERVTSTGGEKMSMVACGWRHTISVSYSGALYTYGWSKYGQLGHGDLEDHLIPHKLEALSNSFISQISGGARHTMALTSDGKLYGWGWNKFGQVGVGNNLDQCSPVQVRFPDDQKVVQVSCGWRHTLAVTERNNVFAWGRGTNGQLGIGESVDRNFPKIIEALSVDGASGQHIESSNIDPSSGKSWVSPAERYAVVPDETGLTDGSSKGNGGDISVPQTDVKRVRI
B2 gave a stoichiometry N [2] of 2.

B3: UVR8^W285A expressed in Arabidopsis, Q9FN03 1-440 (natural protein)
chain: MAEDMAADEVTAPPRKVLIISAGASHSVALLSGDIVCSWGRGEDGQLGHGDAEDRPSPTQLSALDGHQIVSVTCGADHTVAYSQSGMEVYSWGWGDFGRLGHGNSSDLFTPLPIKALHGIRIKQIACGDSHCLAVTMEGEVQSWGRNQNGQLGLGDTEDSLVPQKIQAFEGIRIKMVAAGAEHTAAVTEDGDLYGWGWGRYGNLGLGDRTDRLVPERVTSTGGEKMSMVACGWRHTISVSYSGALYTYGWSKYGQLGHGDLEDHLIPHKLEALSNSFISQISGGARHTMALTSDGKLYGWGWNKFGQVGVGNNLDQCSPVQVRFPDDQKVVQVSCGWRHTLAVTERNNVFAWGRGTNGQLGIGESVDRNFPKIIEALSVDGASGQHIESSNIDPSSGKSWVSPAERYAVVPDETGLTDGSSKGNGGDISVPQTDVKRVRI
Work on B3 yielded a stoichiometry N [3] of 2.
